Test results taken from patent US20230391845A1, “GLP-1, GIP AND GLUCAGON RECEPTOR TRIPLE AGONISTS” (priority 2020, published 2023).
Read-outs that look alike come from different tables or passages of the source. *1 amine or outer side, *2 acyl side, *3 side chain or, on linkers, in order; H or OH if unused. Where a SMILES comes first, the peptide text is derived from it. Where no end group is shown, it is not given here. Side-chain parts run from the residue outwards. [ ]: non-standard residue; d: D form. The star is where a group is joined. C20 diacid = O=C(O)CCCCCCCCCCCCCCCCCCC(=O)*; γGlu = O=C(O)[C@H](CCC(=O)[*:2])N[*:1]; εLys = N[C@@H](CCCCN[*:1])C(=O)[*:2]; Palmitoyl = CCCCCCCCCCCCCCCC(=O)*; Aib = CC(C)(N)C(=O)O

T1: human glucose-dependent insulinotropic polypeptide receptor (human, UniProt P48546 22-466)
T1 sequence (looked up): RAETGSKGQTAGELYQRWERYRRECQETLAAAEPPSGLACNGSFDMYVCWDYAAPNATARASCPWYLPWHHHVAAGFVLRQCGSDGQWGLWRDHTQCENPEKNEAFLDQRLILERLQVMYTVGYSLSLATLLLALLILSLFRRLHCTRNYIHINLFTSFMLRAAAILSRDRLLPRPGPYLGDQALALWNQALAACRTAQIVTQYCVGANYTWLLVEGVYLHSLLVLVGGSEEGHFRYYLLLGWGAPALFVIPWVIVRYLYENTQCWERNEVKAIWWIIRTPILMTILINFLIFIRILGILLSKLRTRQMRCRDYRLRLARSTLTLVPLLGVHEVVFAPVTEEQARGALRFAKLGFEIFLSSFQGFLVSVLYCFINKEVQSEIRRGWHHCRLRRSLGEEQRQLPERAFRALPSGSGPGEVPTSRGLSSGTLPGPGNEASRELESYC


What was measured:
[1] = Maximal efficacy study in DIO mice, daily s.c. dose titration for up to 60 days (body weight, food intake); format: in vivo, C57BL/6J male mice
Description: The purpose of this example is to assess the in vivo effect of selected triple agonists on pharmacodynamic parameters in diet-induced obese (DIO) mice. The animals were treated once daily via subcutaneous injection with a liquid formulation of the triple agonist to be tested to assess effects on body weight, foot intake, and glucose tolerance.
C57BL/6J male mice were purchased from Jackson Laboratories at approximately 8 weeks of age. Mice were group housed and fed a high-fat, high-sugar diet from Research Diets (D12331). Mice were maintained on this diet for 12 weeks prior to initializing the pharmacology studies. Mice exceeding a measured body weight of 50 grams were considered diet-induced obese (DIO) and included in pharmacology studies. Mice were exposed to a controlled 12 h:12 h light:dark cycle at ambient room temperature (22° C.) with ab libitum access to food and water. Studies were approved by and performed according to the guidelines of the Institutional Animal Care and Use Committee of the University of Cincinnati.
All compounds in the study were formulated in the following buffer: 50 mM phosphate; 70 mM sodium chloride; 0.05% Tween-80, pH 7.4. Dosing solutions were formulated in glass vials and stored at 2-8° C. Dosing solutions were brought to room temperature before dosing and returned to 2-8° C. after dosing.
DIO mice were distributed into groups (n=8 per group) such that statistical variations in the mean and standard deviations of fat mass and body weight were minimized between groups. The animals were grouped to receive treatment as follows: Vehicle or GLP-1/GIP/Gcg receptor triple agonists as described herein, where vehicle is 50 mM phosphate, 70 mM sodium chloride; 0.05% (v/v) Tween-80, pH 7.4. The test compounds were dissolved in the vehicle, to stock concentrations of […], then diluted 50- to 200-fold in the vehicle to achieve the desired dosing solution concentrations. Animals were dosed subcutaneously once daily in the morning for each day of treatment with dosing solution at a volume of 2-5 μL per gram of body weight as necessary to achieve the desired dose (e.g. 0.3 nmol/kg, 1.0 nmol/kg, or 3.0 nmol/kg).
Body weight (BW) and food intake were measured immediately prior to dosing each day. The percent change in body was calculated individually for each mouse based on initial body weight prior to the first injection.
In one study, DIO mice received a daily subcutaneous dose for up to 60 days of one of the following: vehicle, Compound No. 21, Compound No. 30, or Compound No. 33. The dose of each compound was up-titrated to maximal efficacy based on the titration schedule included in Table 4. Mice that achieved body weight normalization, defined as a body weight of 22.5 g or less, were voluntarily removed from the study. All triple agonist compounds tested resulted is substantially greater reductions of body weight and food intake than vehicle. […] This may be explained by the similar GLP-1R and GIPR in vitro potency but reduced in vitro GcgR potency of Compound No. 21 compared to Compound No. 30 and Compound No. 33 when investigated with the protocol described in Example 2 except using the mouse-specific receptors.

[2] = Pharmacokinetic study in minipigs, i.v. administration; set-up: species or system Göttingen minipigs; settings: female, Göttingen, minipig, in vivo, iv; minipigs, i.v. administration, harmonic mean; read-out: Terminal half-life t1/2 (converted)
Outline: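 Terminal half-life, reported as harmonic mean, came from non-compartmental fits of plasma levels measured by antibody assay or LCMS over up to 14 days. Dosing was i.v., typically 1.5-2 nmol/kg, through implanted caval catheters in fasted female Göttingen minipigs of 16-35 kg.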

human glucagon receptor [3] = target: T2, human glucagon receptor (human, UniProt P47871 26-477); test: cell-based or functional assay
T2 sequence (P47871 26-477): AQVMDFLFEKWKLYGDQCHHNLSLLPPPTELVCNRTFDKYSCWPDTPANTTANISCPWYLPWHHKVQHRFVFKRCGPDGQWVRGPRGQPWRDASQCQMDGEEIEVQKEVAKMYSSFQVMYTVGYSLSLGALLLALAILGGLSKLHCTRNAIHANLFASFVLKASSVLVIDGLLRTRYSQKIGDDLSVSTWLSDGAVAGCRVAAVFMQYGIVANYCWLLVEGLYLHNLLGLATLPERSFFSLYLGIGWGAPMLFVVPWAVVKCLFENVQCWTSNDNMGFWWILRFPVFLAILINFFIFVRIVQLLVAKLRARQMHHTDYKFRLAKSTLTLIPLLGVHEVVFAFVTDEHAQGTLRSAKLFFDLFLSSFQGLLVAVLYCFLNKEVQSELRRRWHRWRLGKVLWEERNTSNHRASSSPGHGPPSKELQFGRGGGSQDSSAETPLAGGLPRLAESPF

[4] = target: T3, human glucagon-like peptide 1 receptor (human, UniProt P43220 24-463); test: cell-based or functional assay
[5] = target: T1, human glucose-dependent insulinotropic …; test: cell-based or functional assay
human glucagon receptor [6] = target: T2, human glucagon receptor; test: cell-based or functional assay; remark: listed apart in the source
[7] = target: T3, human glucagon-like peptide 1 receptor; test: cell-based or functional assay; remark: listed apart in the source
[8] = target: T1, human glucose-dependent insulinotropic …; test: cell-based or functional assay; remark: listed apart in the source
[9] = s.c. once daily, dose titration of Table 4, last day of treatment, mean ± SEM

Molecule | Absolute BW (grams) Day 0 ([1]; Day 0 (baseline), mean ± SEM) [grams] | Absolute BW (grams) Last day of treatment [1, 9] [grams] | Change in BW (%) Last day of treatment [1, 9] [%] | Average food intake per mouse (grams/day) ([1]; s.c. once daily, dose titration of Table 4, mean ± SEM, n = 1-2) | half-life [2] [h] | hGcgR CRE Luc EC50 (pM) (human glucagon receptor [3]) | hGLP-1R CRE Luc EC50 (pM) [4] [pM] | hGIPR CRE Luc EC50 (pM) [5] [pM] | hGcgR CRE Luc EC50 (pM) (human glucagon receptor [6]) | hGLP-1R CRE Luc EC50 (pM) [7] [pM] | hGIPR CRE Luc EC50 (pM) [8] [pM]
CC[C@H](C)[C@H](NC(=O)[C@H](CO)NC(=O)[C@H](Cc1ccc(O)cc1)NC(=O)[C@H](CC(=O)O)NC(=O)[C@H](CO)NC(=O)[C@@H](NC(=O)[C@H](Cc1ccccc1)NC(=O)[C@@H](NC(=O)CNC(=O)[C@H](Cc1c[nH]cn1)NC(=O)C(C)(C)NC(=O)[C@@H](N)Cc1c[nH]cn1)[C@@H](C)O)[C@@H](C)O)C(=O)N[C@@H](Cc1ccc(O)cc1)C(=O)N[C@@H](CC(C)C)C(=O)N[C@@H](CCC(=O)O)C(=O)N[C@@H](CCCCNC(=O)[C@@H](N)CCCCNC(=O)[C@@H](N)CCCCNC(=O)CC[C@H](NC(=O)CCCCCCCCCCCCCCCCCCC(=O)O)C(=O)O)C(=O)N[C@@H](CCCCN)C(=O)N[C@@H](Cc1ccc(O)cc1)C(=O)N[C@@H](C)C(=O)NC(C)(C)C(=O)N[C@@H](CCC(=O)O)C(=O)N[C@@H](Cc1ccccc1)C(=O)N[C@H](C(=O)N[C@@H](CCC(N)=O)C(=O)N[C@@H](Cc1c[nH]c2ccccc12)C(=O)N[C@@H](CC(C)C)C(=O)N[C@@H](CC(C)C)C(=O)N[C@@H](CCC(=O)O)C(=O)NCC(=O)NCC(=O)N1CCC[C@H]1C(=O)N[C@@H](CO)C(=O)N[C@@H](CO)C(=O)NCC(=O)N[C@@H](C)C(=O)N1CCC[C@H]1C(=O)N1CCC[C@H]1C(=O)N1CCC[C@H]1C(=O)N[C@@H](CO)C(N)=O)C(C)C [Compound No. 30] (H-H[Aib]HGTFTSDYSIYLEK([εLys-εLys-γGlu-C20 diacid])KYA[Aib]EFVQWLLEGGPSSGAPPPS-NH2; N-terminus assumed) | 56.2 ± 1.3 | 22.2 ± 0.3 | −60.5 ± 0.4 | 1.39 ± 0.13 | 78 | – | – | – | – | – | –
Y[Aib]QGTFTSDYSIYLDKQAA[Aib]EFVNWLLAGGPSSGAPPPS-NH2 (not fully specified (residue 16); printed as Y-Aib-QGTFTSDYSIYLD-K[2-[2-[2-[[2-[2-[2-[[(4S)-4-carboxy-4-(17-carboxyheptadecanoylamino)butanoyl]amino]ethoxy]ethoxy]acetyl]amino]ethoxy]ethoxy]acetyl]-QAA-Aib-EFVNWLLAGGPSSGAPPPS-NH2) [Compound No. 1] | – | – | – | – | – | 157 | 8.6 | 23.7 | 157 | 8.6 | 23.7
Y[Aib]QGTFTSDYSIYLDKKAA[Aib]EFVNWLLAGGPSSGAPPPS-NH2 (not fully specified (residue 17); printed as Y-Aib-QGTFTSDYSIYLDK-K[2-[2-[2-[[2-[2-[2-[[(4S)-4-carboxy-4-(17-carboxyheptadecanoylamino)butanoyl]amino]ethoxy]ethoxy]acetyl]amino]ethoxy]ethoxy]acetyl]-AA-Aib-EFVNWLLAGGPSSGAPPPS-NH2) [Compound No. 2] | – | – | – | – | – | 47.6 | 7.1 | 49.8 | 47.6 | 7.1 | 49.8
Y[Aib]QGTFTSDYSIYLDKQAA[Aib]KFVNWLLAGGPSSGAPPPS-NH2 (not fully specified (residue 21); printed as Y-Aib-QGTFTSDYSIYLDKQAA-Aib-K[2-[2-[2-[[2-[2-[2-[[(4S)-4-carboxy-4-(17-carboxyheptadecanoylamino)butanoyl]amino]ethoxy]ethoxy]acetyl]amino]ethoxy]ethoxy]acetyl]-FVNWLLAGGPSSGAPPPS-NH2) [Compound No. 3] | – | – | – | – | – | 34.7 | 5.4 | 27.5 | 34.7 | 5.4 | 27.5
Y[Aib]QGTFTSDYSIYLDKQAA[Aib]EFVNWLLAGGPSSGAPPPSK(Palmitoyl)-NH2 (N-terminus assumed; SMILES CCCCCCCCCCCCCCCC(=O)NCCCC[C@H](NC(=O)[C@H](CO)NC(=O)[C@@H]1CCCN1C(=O)[C@@H]1CCCN1C(=O)[C@@H]1CCCN1C(=O)[C@H](C)NC(=O)CNC(=O)[C@H](CO)NC(=O)[C@H](CO)NC(=O)[C@@H]1CCCN1C(=O)CNC(=O)CNC(=O)[C@H](C)NC(=O)[C@H](CC(C)C)NC(=O)[C@H](CC(C)C)NC(=O)[C@H](Cc1c[nH]c2ccccc12)NC(=O)[C@H](CC(N)=O)NC(=O)[C@@H](NC(=O)[C@H](Cc1ccccc1)NC(=O)[C@H](CCC(=O)O)NC(=O)C(C)(C)NC(=O)[C@H](C)NC(=O)[C@H](C)NC(=O)[C@H](CCC(N)=O)NC(=O)[C@H](CCCCN)NC(=O)[C@H](CC(=O)O)NC(=O)[C@H](CC(C)C)NC(=O)[C@H](Cc1ccc(O)cc1)NC(=O)[C@@H](NC(=O)[C@H](CO)NC(=O)[C@H](Cc1ccc(O)cc1)NC(=O)[C@H](CC(=O)O)NC(=O)[C@H](CO)NC(=O)[C@@H](NC(=O)[C@H](Cc1ccccc1)NC(=O)[C@@H](NC(=O)CNC(=O)[C@H](CCC(N)=O)NC(=O)C(C)(C)NC(=O)[C@@H](N)Cc1ccc(O)cc1)[C@@H](C)O)[C@@H](C)O)[C@@H](C)CC)C(C)C)C(N)=O) [Compound No. 58] | – | – | – | – | – | 21.2 | 4.1 | 7.2 | – | – | –
Y[Aib]QGTFTSDYSIYLDKQAA[Aib]EFVNWLLAGGPSSGAPPPSK-NH2 (not fully specified (residue 40)) [Compound No. 59] | – | – | – | – | – | 703 | 11.7 | 44.5 | – | – | –
